# T1: retinoic acid receptor alpha (RARalpha) (UniProt P10276 P10276:1-462)
# T1 sequence: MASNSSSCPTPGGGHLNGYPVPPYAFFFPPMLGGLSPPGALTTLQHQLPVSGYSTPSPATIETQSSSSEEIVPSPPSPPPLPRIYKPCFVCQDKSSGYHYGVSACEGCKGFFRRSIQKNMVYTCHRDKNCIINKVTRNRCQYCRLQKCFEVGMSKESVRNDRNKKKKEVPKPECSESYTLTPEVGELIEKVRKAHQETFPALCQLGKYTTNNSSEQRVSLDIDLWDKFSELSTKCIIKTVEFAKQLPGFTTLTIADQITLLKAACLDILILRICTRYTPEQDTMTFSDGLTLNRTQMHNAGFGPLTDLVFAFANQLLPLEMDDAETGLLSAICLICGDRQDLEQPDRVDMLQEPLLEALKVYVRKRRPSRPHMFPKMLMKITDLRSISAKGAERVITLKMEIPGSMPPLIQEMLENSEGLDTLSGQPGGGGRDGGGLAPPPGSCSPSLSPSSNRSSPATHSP
# T2: thyroid hormone receptor alpha (rTRalpha) (Rattus norvegicus, UniProt P63059-2 P63059-2:1-410)
# T2 sequence: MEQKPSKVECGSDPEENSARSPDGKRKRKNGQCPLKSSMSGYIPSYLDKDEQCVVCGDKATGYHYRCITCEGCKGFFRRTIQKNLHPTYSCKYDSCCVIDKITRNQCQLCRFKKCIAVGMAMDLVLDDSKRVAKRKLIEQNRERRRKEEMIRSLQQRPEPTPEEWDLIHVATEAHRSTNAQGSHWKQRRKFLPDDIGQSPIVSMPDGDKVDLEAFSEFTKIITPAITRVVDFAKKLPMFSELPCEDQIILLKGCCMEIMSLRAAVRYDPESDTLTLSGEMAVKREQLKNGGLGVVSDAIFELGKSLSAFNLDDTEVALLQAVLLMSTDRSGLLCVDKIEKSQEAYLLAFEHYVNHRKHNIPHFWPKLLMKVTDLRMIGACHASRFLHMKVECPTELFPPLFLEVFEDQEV
# B1: TREp palindromic thyroid response element (dsDNA)
# DNA 1: TCAGGTCATGACCTGA
# DNA 2: TCAGGTCATGACCTGA
# Legend:
# [1] = tested on: glucocorticoid receptor (hGR) (Homo sapiens); assay: cell_activity; conditions: dexamethasone 1e-7 M, MTV-Luc in CV-1
# [2] = molecular target: T1, retinoic acid receptor alpha (RARalpha); assay: cell_activity; 100 nM RA, delta-MTV-TREp-CAT in CV-1
# [3] = molecular target: T2, thyroid hormone receptor alpha …; assay: cell_activity; T3 100 nM stimulation of tk-TREp-CAT in CV-1; 80% decrease of basal activity without hormone; conditions: tags: RSV expression vector RS-rTRalpha in CV-1 cells
Molecule,activity [1],activity [2],activity [3]
mouse mammary tumor virus (MTV) promoter,3000 fold,,
B1,,25 fold,20 fold

# From US5602009, “Dominant negative chimeras of the steroid/thyroid superfamily of receptors” (The Salk Institute for Biological Studies)
